Source: US6156555

Columns and labels:
[1] = target: phenylalanyl-glycyl-phenylalanyl-hydroxylglycine
[2] = target: phenylalanyl-glycyl-phenylalanyl-glycine

Substance | Enzyme activity n mole/h/ml medium; substrate PheGlyPhehydroxyGly, product PheGlyPhe-NH2 + glyoxylic acid [1] | Enzyme activity n mole/h/ml medium; substrate PheGlyPheGly, product PheGlyPhe-hydroxyGly [2]
enzyme expressed by plasmid SV-a (rat; signal sequence + N-terminal domain) (from UniProt P14925) | < 2 nmol/h/mL | 2.8 nmol/h/mL
enzyme expressed by plasmid SV-b (rat; signal sequence + C-terminal domain) (from UniProt P14925) | 10.8 nmol/h/mL | 0.4 nmol/h/mL
enzymes expressed by plasmid SV-203 (rat; signal sequence + N-terminal domain + C-terminal domain) (from UniProt P14925) | 4.2 nmol/h/mL | 2.5 nmol/h/mL
